Measured values reported in paper PMC4569848 (Nature Communications, 2015).

T1: GST-clathrin 1–494 (human, UniProt Q00610 1-494)
T1 construct: clathrin, human, residues 1-494, in pGEX-6P1; source: E. coli BL21, purified (glutathione-Sepharose 4B, eluted with GSH); not shown: GST, N-terminal, kept
T1 sequence (looked up): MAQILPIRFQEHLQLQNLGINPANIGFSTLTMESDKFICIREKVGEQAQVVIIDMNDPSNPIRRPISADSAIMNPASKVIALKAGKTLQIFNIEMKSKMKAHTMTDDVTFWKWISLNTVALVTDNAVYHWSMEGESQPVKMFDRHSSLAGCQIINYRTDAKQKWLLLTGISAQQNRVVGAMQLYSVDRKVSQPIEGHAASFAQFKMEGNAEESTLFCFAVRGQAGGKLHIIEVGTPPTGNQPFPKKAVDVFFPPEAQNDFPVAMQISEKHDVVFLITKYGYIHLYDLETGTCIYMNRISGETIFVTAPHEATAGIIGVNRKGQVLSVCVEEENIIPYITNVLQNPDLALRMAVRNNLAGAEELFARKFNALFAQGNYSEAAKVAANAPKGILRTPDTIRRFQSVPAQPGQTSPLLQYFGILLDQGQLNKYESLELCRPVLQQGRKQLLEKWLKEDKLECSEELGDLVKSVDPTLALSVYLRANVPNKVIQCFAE


biological target: T1, GST-clathrin 1–494; assay: pull-down; β-arrestin-1-F2Y mutants (300 nM) incubated with equal concentrations of GST-clathrin and V2R-phospho-peptide (V2Rpp), or without peptide; pulled down with GST beads; bound β-arrestin-1 detected by western blot with a β-arrestin-1 antibody; settings: both partners purified

| Binder | binding result |
| --- | --- |
| β-arrestin-1-L338-F2Y (natural protein, bovine, UniProt P17870 1-418, looked up, 3,5-difluorotyrosine (F2Y) at 338, β-arrestin-1, bovine, full-length cDNA in pET22b, amber codon at L338 read as F2Y; also called F2Y-L338; source: E. coli BL21 (DE3) with pEVOL-F2YRS and F2Y in the medium, purified (Ni-NTA, gel filtration)) MGDKGTRVFKKASPNGKLTVYLGKRDFVDHIDLVEPVDGVVLVDPEYLKERRVYVTLTCAFRYGREDLDVLGLTFRKDLFVANVQSFPPAPEDKKPLTRLQERLIKKLGEHAYPFTFEIPPNLPCSVTLQPGPEDTGKACGVDYEVKAFCAENLEEKIHKRNSVRLVIRKVQYAPERPGPQPTAETTRQFLMSDKPLHLEASLDKEIYYHGEPISVNVHVTNNTNKTVKKIKISVRQYADICLFNTAQYKCPVAMEEADDTVAPSSTFCKVYTLTPFLANNREKRGLALDGKLKHEDTNLASSTLLREGANREILGIIVSYKVKVKLVVSRGGLLGDYASSDVAVELPFTLMHPKPKEEPPHREVPEHETPVDTNLIELDTNDDDIVFEDFARQRLKGMKDDKEEEEDGTGSPRLNDR | binds |
| β-arrestin-1-K107-F2Y (natural protein, bovine, UniProt P17870 1-418, looked up, 3,5-difluorotyrosine (F2Y) at 107, β-arrestin-1, bovine, full-length cDNA in pET22b, amber codon at K107 read as F2Y; source: E. coli BL21 (DE3) with pEVOL-F2YRS and F2Y in the medium, purified (Ni-NTA, gel filtration)) MGDKGTRVFKKASPNGKLTVYLGKRDFVDHIDLVEPVDGVVLVDPEYLKERRVYVTLTCAFRYGREDLDVLGLTFRKDLFVANVQSFPPAPEDKKPLTRLQERLIKYLGEHAYPFTFEIPPNLPCSVTLQPGPEDTGKACGVDYEVKAFCAENLEEKIHKRNSVRLVIRKVQYAPERPGPQPTAETTRQFLMSDKPLHLEASLDKEIYYHGEPISVNVHVTNNTNKTVKKIKISVRQYADICLFNTAQYKCPVAMEEADDTVAPSSTFCKVYTLTPFLANNREKRGLALDGKLKHEDTNLASSTLLREGANREILGIIVSYKVKVKLVVSRGGLLGDLASSDVAVELPFTLMHPKPKEEPPHREVPEHETPVDTNLIELDTNDDDIVFEDFARQRLKGMKDDKEEEEDGTGSPRLNDR | binds |
| β-arrestin-1-F75-F2Y (natural protein, bovine, UniProt P17870 1-418, looked up, 3,5-difluorotyrosine (F2Y) at 75, β-arrestin-1, bovine, full-length cDNA in pET22b, amber codon at F75 read as F2Y; source: E. coli BL21 (DE3) with pEVOL-F2YRS and F2Y in the medium, purified (Ni-NTA, gel filtration)) MGDKGTRVFKKASPNGKLTVYLGKRDFVDHIDLVEPVDGVVLVDPEYLKERRVYVTLTCAFRYGREDLDVLGLTYRKDLFVANVQSFPPAPEDKKPLTRLQERLIKKLGEHAYPFTFEIPPNLPCSVTLQPGPEDTGKACGVDYEVKAFCAENLEEKIHKRNSVRLVIRKVQYAPERPGPQPTAETTRQFLMSDKPLHLEASLDKEIYYHGEPISVNVHVTNNTNKTVKKIKISVRQYADICLFNTAQYKCPVAMEEADDTVAPSSTFCKVYTLTPFLANNREKRGLALDGKLKHEDTNLASSTLLREGANREILGIIVSYKVKVKLVVSRGGLLGDLASSDVAVELPFTLMHPKPKEEPPHREVPEHETPVDTNLIELDTNDDDIVFEDFARQRLKGMKDDKEEEEDGTGSPRLNDR | binds |
| β-arrestin-1-F277-F2Y (natural protein, bovine, UniProt P17870 1-418, looked up, 3,5-difluorotyrosine (F2Y) at 277, β-arrestin-1, bovine, full-length cDNA in pET22b, amber codon at F277 read as F2Y; also called F2Y-F277; source: E. coli BL21 (DE3) with pEVOL-F2YRS and F2Y in the medium, purified (Ni-NTA, gel filtration)) MGDKGTRVFKKASPNGKLTVYLGKRDFVDHIDLVEPVDGVVLVDPEYLKERRVYVTLTCAFRYGREDLDVLGLTFRKDLFVANVQSFPPAPEDKKPLTRLQERLIKKLGEHAYPFTFEIPPNLPCSVTLQPGPEDTGKACGVDYEVKAFCAENLEEKIHKRNSVRLVIRKVQYAPERPGPQPTAETTRQFLMSDKPLHLEASLDKEIYYHGEPISVNVHVTNNTNKTVKKIKISVRQYADICLFNTAQYKCPVAMEEADDTVAPSSTFCKVYTLTPYLANNREKRGLALDGKLKHEDTNLASSTLLREGANREILGIIVSYKVKVKLVVSRGGLLGDLASSDVAVELPFTLMHPKPKEEPPHREVPEHETPVDTNLIELDTNDDDIVFEDFARQRLKGMKDDKEEEEDGTGSPRLNDR | binds |

Results, then the binder that gave them:

| binding result | Binder |
| --- | --- |
| binds | β-arrestin-1-D383-F2Y (natural protein, bovine, UniProt P17870 1-418, looked up, 3,5-difluorotyrosine (F2Y) at 383, β-arrestin-1, bovine, full-length cDNA in pET22b, amber codon at D383 read as F2Y; source: E. coli BL21 (DE3) with pEVOL-F2YRS and F2Y in the medium, purified (Ni-NTA, gel filtration)) MGDKGTRVFKKASPNGKLTVYLGKRDFVDHIDLVEPVDGVVLVDPEYLKERRVYVTLTCAFRYGREDLDVLGLTFRKDLFVANVQSFPPAPEDKKPLTRLQERLIKKLGEHAYPFTFEIPPNLPCSVTLQPGPEDTGKACGVDYEVKAFCAENLEEKIHKRNSVRLVIRKVQYAPERPGPQPTAETTRQFLMSDKPLHLEASLDKEIYYHGEPISVNVHVTNNTNKTVKKIKISVRQYADICLFNTAQYKCPVAMEEADDTVAPSSTFCKVYTLTPFLANNREKRGLALDGKLKHEDTNLASSTLLREGANREILGIIVSYKVKVKLVVSRGGLLGDLASSDVAVELPFTLMHPKPKEEPPHREVPEHETPVDTNLIELDTNYDDIVFEDFARQRLKGMKDDKEEEEDGTGSPRLNDR |
| binds | β-arrestin-1-F388-F2Y (natural protein, bovine, UniProt P17870 1-418, looked up, 3,5-difluorotyrosine (F2Y) at 388, β-arrestin-1, bovine, full-length cDNA in pET22b, amber codon at F388 read as F2Y; source: E. coli BL21 (DE3) with pEVOL-F2YRS and F2Y in the medium, purified (Ni-NTA, gel filtration)) MGDKGTRVFKKASPNGKLTVYLGKRDFVDHIDLVEPVDGVVLVDPEYLKERRVYVTLTCAFRYGREDLDVLGLTFRKDLFVANVQSFPPAPEDKKPLTRLQERLIKKLGEHAYPFTFEIPPNLPCSVTLQPGPEDTGKACGVDYEVKAFCAENLEEKIHKRNSVRLVIRKVQYAPERPGPQPTAETTRQFLMSDKPLHLEASLDKEIYYHGEPISVNVHVTNNTNKTVKKIKISVRQYADICLFNTAQYKCPVAMEEADDTVAPSSTFCKVYTLTPFLANNREKRGLALDGKLKHEDTNLASSTLLREGANREILGIIVSYKVKVKLVVSRGGLLGDLASSDVAVELPFTLMHPKPKEEPPHREVPEHETPVDTNLIELDTNDDDIVYEDFARQRLKGMKDDKEEEEDGTGSPRLNDR |
